In paper PMC8672811 (Journal of molecular biology, 2021):
Where two headings read alike, the source gives them in different places.

Key:
[1] = molecular target: the molecule itself; test: SEC
[2] = molecular target: the molecule itself; test: SEC; remark: listed apart in the source
[3] = molecular target: the molecule itself; test: SEC; remark: listed apart in the source
[4] = molecular target: the molecule itself; test: crystal structure

B1: KcsA W67F channel (natural protein, UniProt P0A334 1-125, looked up)
chain: MPPMLSGLLARLVKLLLGRHGSALHWRAAGAATVLLVIVLLAGSYLAVLAERGAPGAQLITYPRALFWSVETATTVGYGDLYPVTLWGRLVAVVVMVAGITSFGLVTAALATWFVGREQERRGHF
With B1 the “stoichiometry N” value [1] was 4.

B2: KcsA Y82A channel (natural protein, UniProt P0A334 1-125, looked up)
chain: MPPMLSGLLARLVKLLLGRHGSALHWRAAGAATVLLVIVLLAGSYLAVLAERGAPGAQLITYPRALWWSVETATTVGYGDLAPVTLWGRLVAVVVMVAGITSFGLVTAALATWFVGREQERRGHF
For B2, the “stoichiometry N” value [2] was 4.

B3: KcsA W67F/F103A channel (natural protein, UniProt P0A334 1-125, looked up)
chain: MPPMLSGLLARLVKLLLGRHGSALHWRAAGAATVLLVIVLLAGSYLAVLAERGAPGAQLITYPRALFWSVETATTVGYGDLYPVTLWGRLVAVVVMVAGITSAGLVTAALATWFVGREQERRGHF
B3: binds [3].

B4: KcsA W67F channel, locked open (disulfide cross-linked open-state construct) (natural protein, UniProt P0A334 21-125, looked up)
chain: GSALQWRCAGAATVLLVIVLLAGSYLAVLAERGAPGAQLITYPRALFWSVETATTVGYGDLYPVTLWGRLVAVVVMVAGITSFGLVTAALATWFVGQCQQQQGHF
modifications: Cys mutant channels in the cross-linked state (disulfide crosslink between subunits)
For B4, the “stoichiometry N” value [3] was 4.

B5: KcsA WT channel trapped with the activation gate open (disulfide cross-linked open-state construct) (natural protein, UniProt P0A334 21-125, looked up)
chain: GSALQWRCAGAATVLLVIVLLAGSYLAVLAERGAPGAQLITYPRALWWSVETATTVGYGDLYPVTLWGRLVAVVVMVAGITSFGLVTAALATWFVGQCQQQQGHF
modifications: Cys mutant channels in the cross-linked state (disulfide crosslink between subunits)
B5: binds [4].
